Positions count from the first letter of the chain named.
Columns and labels:
Experiment in all cases: SPR
[1] = test system: His6-AdiY (Escherichia coli K-12 MG1655); details: pH 6.0, phosphate; 1:4 DNA:protein; SPR (Biacore T200, SA chip), 25 C, 50 mM sodium phosphate pH 6.0-7.0 (50 mM citrate at pH 5.5 and 5.8), 250 mM NaCl, 2% glycerol, 2 mM DTT, 0.005% P20; 1:1 …
[2] = target: T1, His6-AdiY (Escherichia coli K-12 MG1655) (UniProt P33234); details: SPR (Biacore T200, SA chip), 25 C, 50 mM sodium phosphate pH 6.0-7.0 (50 mM citrate at pH 5.5 and 5.8), 250 mM NaCl, 2% glycerol, 2 mM DTT, 0.005% P20; 1:1 …
T1 sequence: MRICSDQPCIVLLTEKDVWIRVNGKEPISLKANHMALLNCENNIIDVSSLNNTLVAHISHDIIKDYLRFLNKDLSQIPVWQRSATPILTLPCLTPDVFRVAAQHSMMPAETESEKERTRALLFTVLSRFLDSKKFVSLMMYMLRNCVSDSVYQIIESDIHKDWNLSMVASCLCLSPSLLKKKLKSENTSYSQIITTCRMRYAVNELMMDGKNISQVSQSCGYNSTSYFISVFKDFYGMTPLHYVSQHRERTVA

[3] = target: T2, His6-AdiY-H34A/H60A H34A;H60A (Escherichia coli K-12 MG1655) (UniProt P33234); details: SPR (Biacore T200, SA chip), 25 C, 50 mM sodium phosphate pH 6.0-7.0 (50 mM citrate at pH 5.5 and 5.8), 250 mM NaCl, 2% glycerol, 2 mM DTT, 0.005% P20; 1:1 …
T2 sequence: T1 sequence with H34A, H60A

PadiA (adiA promoter)
Kd [1]: 170 nM

PadiC (adiC promoter)
Kd [1]: 120 nM

TCTACGGTATGACGCCGCTGCATTATGTTAGTCAGCACAGAGAACGCACTGTCGCCTGATTTTTAACCTTAACGAAGAGCTATATTAATAACGGCATCAGCGATAACCCGGTCGATAATAATTCAACTATCGAATGCAGGCGTATGATATGACGTAATTTATTGTCACGAAGCTCGCCTTCGCAGGAGTTTAATT (double strand) [PadiC (adiC promoter)]
Kd [2]: 120 nM
binding [2]: binds
binding [3]: no binding

TGCTTACCCGGTTATGAAGGAATCTTCGTTGCGGGCAAGTATCTTCCGGCCTTTTCGGGCTGTAAAGCGCGTGAAAAACAAACATTTTTGAAATATTTAGTTTTATAAACAATACGTTATGTGATTATTTTAAATTATTTTCACTGCTTATTATCGACGGCTAAACTATTTTTTTGGCTGATACTGATATCGTCT (double strand) [PadiA (adiA promoter)]
Kd [2]: 170 nM
binding [2]: binds
binding [3]: no binding
